Test results: publication PMC10325919 (2023)
Starred links: 1 amine or outer side, 2 acyl side, 3 side chain; linkers in the order of their positions; H or OH if unused. Non-standard residues stand in square brackets, D forms with d. No end group written: not given here. Lys(Me3) = C[N+](C)(C)CCCC[C@H](N)C(=O)O; Ethylenediamine = C(CN[*:2])N[*:1]; 5‑FAM = 5-carboxyfluorescein; GABA = NCCCC(=O)O

Target: T1, E. coli expressed BAHD1(aa:588–780) (UniProt Q8TBE0 588-780)
T1 chain: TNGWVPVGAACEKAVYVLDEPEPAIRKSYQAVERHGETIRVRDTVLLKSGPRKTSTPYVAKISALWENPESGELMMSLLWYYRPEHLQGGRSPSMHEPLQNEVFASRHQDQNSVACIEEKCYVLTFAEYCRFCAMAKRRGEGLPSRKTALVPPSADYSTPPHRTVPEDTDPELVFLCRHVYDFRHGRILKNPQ
Experiment: FP

- Kd: 700 nM
Binder: PRKQLATKAAR[Lys(Me3)]SAPATGG-{Ethylenediamine-GABA-5‑FAM} [H3 16–35 K27me3 peptide]
